Biological target: Thr315Ala variant of the catalytic domain of ICR^Mc (ICR^Mccat^Thr315Ala) (Moraxella catarrhalis strain BC1)
Experiment: crystal structure

Thr315Ala variant of the catalytic domain of ICR^Mc (ICR^Mccat^Thr315Ala) (domain or fragment)
stoichiometry N: 2
